This experiment deals with gp120 YU2 (HIV, type R5 isolate YU2) (UniProt P35961). As to the kind of experiment: SPR, indirect; rising concentrations of mCD4 mixed with unlinked HS12Lb, co-incubated with 40 nM gp120 YU2; readout: gp120 bound to the mAb 17b surface [bottom panel]. A general note: SPR reads the build-up and loss of mass on a sensor chip optically.

Usually EC50 (read off the curve) stands for the concentration needed to bring the measured effect to its halfway point.

Take miniCD4 peptide (mCD4): the EC50 (read off the curve) is 6 nM.

Values taken from patent US20110105412A1.
